Assay results from patent publication US20070128678A1.

B1: PstP1-240 (His-tagged catalytic domain of Mycobacterium tuberculosis Ser/Thr protein phosphatase PstP, aa 1-240) (protein)
chain: MARVTLVLRYAARSDRGLVRANNEDSVYAGARLLALADGMGGHAAGEVASQLVIAALAHLDDDEPGGDLLAKLDAAVRAGNSAIAAQVEMEPDLEGMGTTLTAILFAGNRLGLVHIGDSRGYLLRDGELTQITKDDTFVQTLVDEGRITPEEAHSHPQRSLIMRALTGHEVEPTLTMREARAGDRYLLCSDGLSDPVSDETILEALQIPEVAESAHRLIELALRGGGPDNVTVVVADVVD

Columns and labels:
[1] = target: PknB1-279 (His-tagged catalytic kinase domain of Mycobacterium tuberculosis Ser/Thr protein kinase PknB, aa 1-279) (Mycobacterium tuberculosis) (UniProt P9WI81); test: cell-based or functional assay
[2] = target: T1, PknB1-279 (His-tagged catalytic kinase domain of Mycobacterium tuberculosis Ser/Thr protein kinase PknB, aa 1-279), P9WI81
T1 chain: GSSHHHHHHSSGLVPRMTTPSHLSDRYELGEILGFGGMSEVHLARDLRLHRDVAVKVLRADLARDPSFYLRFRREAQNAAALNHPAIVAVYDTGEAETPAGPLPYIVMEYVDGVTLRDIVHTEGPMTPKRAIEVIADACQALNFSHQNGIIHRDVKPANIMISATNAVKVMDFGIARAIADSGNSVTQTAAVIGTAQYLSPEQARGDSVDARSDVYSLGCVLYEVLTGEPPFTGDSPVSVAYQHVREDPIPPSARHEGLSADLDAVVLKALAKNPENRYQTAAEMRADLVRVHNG

Molecule | MALDI-TOF mass of PknB1-279 after phosphatase treatment (phosphate groups removed) (phosphate groups) [1] | dephosphorylation of autophosphorylated [33P]-PknB1-279 by PstP (SDS-PAGE, autoradiography, band shift) [2] | kinase activity of PknB on MBP with thio-γATP after preincubation with PstP [2]
PstP1-240 (His-tagged catalytic domain of Mycobacterium tuberculosis Ser/Thr protein phosphatase PstP, aa 1-240) (from UniProt P9WHW4 1-240) (enzyme) | 3 | – | –
B1 | – | PstP is capable of dephosphorylating PknB | prior dephosphorylation of PknB by PstP inhibits kinase activity on MBP
